Results from publication PMC7859202, “A scaffold lncRNA shapes the mitosis to meiosis switch”.

T1: RRM3Mei2 (Schizosaccharomyces pombe, UniProt P08965 579-750)
T1 sequence: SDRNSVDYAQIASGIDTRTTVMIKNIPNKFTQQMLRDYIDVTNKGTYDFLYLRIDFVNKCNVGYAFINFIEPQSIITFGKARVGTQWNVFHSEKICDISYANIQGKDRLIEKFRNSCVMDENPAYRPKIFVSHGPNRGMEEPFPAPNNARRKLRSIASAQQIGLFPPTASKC


The binders below were run against T1, RRM3Mei2 (assay: ITC; ITC: 20 mM Tris-HCl pH 7.5, 200 mM NaCl, 5 mM 2-mercaptoethanol, 20 °C; N fixed to 1). Details: protein: recombinant; tags: GST-tag removed by 3C protease.

Row | Binder | Kd [nM]
1 | UUUUUUUUUUUUUUU (ssRNA) [poly-U15] | 1430 ± 194
2 | UUUUUUGGUUUUUUU (ssRNA) [U6GGU7] | 435 ± 112
3 | GCUUUUUGUUCG (ssRNA) [GCUUUUUGUUCG 12-mer] | 555 ± 166
4 | UUUUUUUGUUUUUUU (ssRNA) [U7GU7] | 145 ± 26
